Measurements as given in patent US20260242478A1 (published 2026).
Where no end group is shown, it is not given here.

Legend:
[1] = target: T1, PSMA Fab (SEQ ID NOs: 19, 20); assay: phage ELISA; biotinylated PSMA Fab on neutravidin plate, anti-M13 HRP; no PSMA antigen
T1 construct: Biotinylated and captured on neutravidin coated plates in the phage ELISA; also called Anti-PSMA Fab; 006 PSMA Fab
Experimental: (§1) Clonal phage were harvested as crude supernatants and screened via standard ELISAs. […] Prior to the addition of clonal phage. wells were incubated with blocking buffer and PSMA antigen or blocking buffer alone. Without washing or aspirating, clonal phage supernatants were then added to the wells and incubated for a short time. Wells were then washed followed by detection of bound phage using a horse radish conjugated anti-M13 antibody.

[2] = target: T1, PSMA Fab (SEQ ID NOs: 19, 20); assay: phage ELISA; biotinylated PSMA Fab on neutravidin plate, anti-M13 HRP; competitor PSMA antigen pre-incubated
Experimental: as §1

PSMA Fab [3] = target: T2, PSMA Fab (biotinylated (site not stated)); assay: clonal phage ELISA on captured PSMA Fab pre-incubated with PSMA antigen (competitor: PSMA), anti-M13-HRP detection
T2 construct: also called Anti-PSMA Fab; 006 PSMA Fab

PSMA Fab [4] = target: T2, PSMA Fab; assay: clonal phage ELISA on biotinylated PSMA Fab captured on neutravidin plates, blocking buffer alone, anti-M13-HRP detection
Experimental: as §1

PSMA Fab [5] = target: T3, PSMA Fab (biotinylated (site not stated)); assay: clonal phage ELISA on biotinylated PSMA Fab captured on neutravidin plates, anti-M13 HRP detection;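 note: crude clonal phage supernatants tested, before phage were added, wells were pretreated with PSMA antigen in blocking buffer or with blocking buffer only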
T3 construct: also called Anti-PSMA Fab; 006 PSMA Fab

PSMA Fab [6] = target: T3, PSMA Fab; assay: clonal phage ELISA on captured PSMA Fab, wells pre-incubated with PSMA antigen as competitor; column meaning inferred
Experimental: as §1

Binder	phage binding ELISA signal in presence of PSMA (PSMA Fab [3])	phage binding ELISA signal (PSMA Fab [4])	other results
EGPWCIPEWMCQNS [Phage-2570]			phage binding ELISA signal [1]: 1.1; phage binding ELISA signal [2]: 0.0766
SEKWCIPEWMCMYA (Clonal phage displaying the peptide, tested as crude supernatant; also called peptide-180 library clone; not shown: fused to the pIII filament protein of the bacteriophage) [Phage-2581]	0.0532	1.08	
LQEWCIPPWMCIKS (Clonal phage displaying the peptide, tested as crude supernatant; also called peptide-180 library clone; not shown: fused to the pIII filament protein of the bacteriophage) [Phage-2578]	0.0797	1.09	
AIHWCTPPWMCEPQ [Phage-2569]			phage binding ELISA signal [1]: 1.1; phage binding ELISA signal [2]: 0.0777
LTNWCTPSWMCYGL (Clonal phage displaying the peptide, tested as crude supernatant; also called peptide-180 library clone; not shown: fused to the pIII filament protein of the bacteriophage) [Phage-2577]	0.0817	1.09	
VVKWCKPAWMCEQA (Clonal phage displaying the peptide, tested as crude supernatant; also called peptide-180 library clone; not shown: fused to the pIII filament protein of the bacteriophage) [Phage-2584]	0.0788	1.07	
VMKWCTPSWMCEHI (cysteine pairing not given here; also: displayed on phage as pIII fusion, linker and pIII sequence not given here, Clonal phage of the peptide-180 library; not shown: fused to pIII of the bacteriophage) [Phage-2605]			Phage binding ELISA signal, Anti-PSMA Fab (PSMA Fab [5]): 1.03; Phage binding ELISA signal, Anti-PSMA Fab in presence of PSMA antigen (PSMA Fab [6]): 0.0582
YDVLCKPDWMCNWN [Phage-2568]			phage binding ELISA signal [1]: 1.11; phage binding ELISA signal [2]: 0.0861
EVMWCRPAWMCDGI (Clonal phage displaying the peptide, tested as crude supernatant; also called peptide-180 library clone; not shown: fused to the pIII filament protein of the bacteriophage) [Phage-2583]	0.0623	1.07	
QMKLCIPQWMCVDH (cysteine pairing not given here; also: displayed on phage as pIII fusion, linker and pIII sequence not given here, Clonal phage of the peptide-180 library; not shown: fused to pIII of the bacteriophage) [Phage-2607]			Phage binding ELISA signal, Anti-PSMA Fab (PSMA Fab [5]): 1.03; Phage binding ELISA signal, Anti-PSMA Fab in presence of PSMA antigen (PSMA Fab [6]): 0.0553
ETQMCVPQWMCWGI (Clonal phage displaying the peptide, tested as crude supernatant; also called peptide-180 library clone; not shown: fused to the pIII filament protein of the bacteriophage) [Phage-2586]	0.0571	1.07	
GVKWCTPAWMCEWT (Clonal phage displaying the peptide, tested as crude supernatant; also called peptide-180 library clone; not shown: fused to the pIII filament protein of the bacteriophage) [Phage-2580]	0.0707	1.08	
GPKWCTPPWMCWEF (Clonal phage displaying the peptide, tested as crude supernatant; also called peptide-180 library clone; not shown: fused to the pIII filament protein of the bacteriophage) [Phage-2579]	0.331	1.08	
LHKLCIPEWMCEYY (cysteine pairing not given here; also: displayed on phage as pIII fusion, linker and pIII sequence not given here, Clonal phage of the peptide-180 library; not shown: fused to pIII of the bacteriophage) [Phage-2608]			Phage binding ELISA signal, Anti-PSMA Fab (PSMA Fab [5]): 1.03; Phage binding ELISA signal, Anti-PSMA Fab in presence of PSMA antigen (PSMA Fab [6]): 0.0595
VDTWCTPPWMCWGL (cysteine pairing not given here; also: fused to phage pIII, linker and fusion site not given here, also called peptide-180 library clone; not shown: fused to the pIII filament protein of the bacteriophage) [Phage-2573]	0.0695	1.09	
IAKWCIPSWMCAGI (cysteine pairing not given here; also: fused to phage pIII, linker and fusion site not given here) [Phage-2571]			phage binding ELISA signal [1]: 1.1; phage binding ELISA signal [2]: 0.139
EFKWCTPEWMCAMA (cysteine pairing not given here; also: fused to phage pIII, linker and fusion site not given here, Clonal phage displaying the peptide, tested as crude supernatant; also called peptide-180 library clone; not shown: fused to the pIII filament protein of the bacteriophage) [Phage-2575]	0.0845	1.09	
QYNWCVPAWMCEIS [Phage-2572]			phage binding ELISA signal [1]: 1.1; phage binding ELISA signal [2]: 0.0848
VGKWCVPMWMCATD (cysteine pairing not given here; also: fused to phage pIII, linker and fusion site not given here, Clonal phage displaying the peptide, tested as crude supernatant; also called peptide-180 library clone; not shown: fused to the pIII filament protein of the bacteriophage) [Phage-2587]	0.0735	1.06	
QEKMCIPAWMCSEY (Clonal phage displaying the peptide, tested as crude supernatant; also called peptide-180 library clone; not shown: fused to the pIII filament protein of the bacteriophage) [Phage-2576]	0.0615	1.09	
VDKWCIPAWMCDRS (cysteine pairing not given here; also: displayed on phage as pIII fusion, linker and pIII sequence not given here, Clonal phage of the peptide-180 library; not shown: fused to pIII of the bacteriophage) [Phage-2606]			Phage binding ELISA signal, Anti-PSMA Fab (PSMA Fab [5]): 1.03; Phage binding ELISA signal, Anti-PSMA Fab in presence of PSMA antigen (PSMA Fab [6]): 0.0604
EGKWCIPEWMCISV (Clonal phage displaying the peptide, tested as crude supernatant; also called peptide-180 library clone; not shown: fused to the pIII filament protein of the bacteriophage) [Phage-2582]	0.0637	1.08	
DLKRCIPDWMCAVA (cysteine pairing not given here; also: fused to phage pIII, linker and fusion site not given here, Clonal phage displaying the peptide, tested as crude supernatant; also called peptide-180 library clone; not shown: fused to the pIII filament protein of the bacteriophage) [Phage-2585]	0.0617	1.07	
VWQLCIPPWMCQFE (cysteine pairing not given here; also: displayed on phage as pIII fusion, linker and pIII sequence not given here, Clonal phage of the peptide-180 library; not shown: fused to pIII of the bacteriophage) [Phage-2604]			Phage binding ELISA signal, Anti-PSMA Fab (PSMA Fab [5]): 1.03; Phage binding ELISA signal, Anti-PSMA Fab in presence of PSMA antigen (PSMA Fab [6]): 0.113
TFKWCTPAWMCAGF (cysteine pairing not given here; also: fused to phage pIII, linker and fusion site not given here, Clonal phage displaying the peptide, tested as crude supernatant; also called peptide-180 library clone; not shown: fused to the pIII filament protein of the bacteriophage) [Phage-2574]	0.0801	1.09	
